Legend:
[1] = target: human NPR1 on HEK293/hNPR1 cells (human) (UniProt P16066); assay: cell-based or functional assay
[2] = target: dog NPR1 extracellular domain expressed with a C-terminal myc-myc-hexahistidine (dog); assay: SPR Biacore 8K, mAb captured via anti-hFc, 25 C
[3] = target: human NPR1 extracellular domain expressed with a C-terminal myc-myc-hexahistidine (human) (UniProt P16066); assay: SPR Biacore 8K, mAb captured via anti-hFc, 25 C
[4] = target: monkey NPR1 extracellular domain expressed with a C-terminal myc-myc-hexahistidine (monkey); assay: SPR Biacore 8K, mAb captured via anti-hFc, 25 C
[5] = target: mouse NPR1 extracellular domain expressed with a C-terminal myc-myc-hexahistidine (mouse) (UniProt P18293); assay: SPR Biacore 8K, mAb captured via anti-hFc, 25 C
[6] = target: pig NPR1 extracellular domain expressed with a C-terminal myc-myc-hexahistidine (pig); assay: SPR Biacore 8K, mAb captured via anti-hFc, 25 C
[7] = target: dog NPR1 extracellular domain expressed with a C-terminal myc-myc-hexahistidine (dog); assay: SPR Biacore 8K, mAb captured via anti-hFc, 37 C
[8] = target: human NPR1 extracellular domain expressed with a C-terminal myc-myc-hexahistidine (human) (UniProt P16066); assay: SPR Biacore 8K, mAb captured via anti-hFc, 37 C
[9] = target: monkey NPR1 extracellular domain expressed with a C-terminal myc-myc-hexahistidine (monkey); assay: SPR Biacore 8K, mAb captured via anti-hFc, 37 C
[10] = target: mouse NPR1 extracellular domain expressed with a C-terminal myc-myc-hexahistidine (mouse) (UniProt P18293); assay: SPR Biacore 8K, mAb captured via anti-hFc, 37 C
[11] = target: pig NPR1 extracellular domain expressed with a C-terminal myc-myc-hexahistidine (pig); assay: SPR Biacore 8K, mAb captured via anti-hFc, 37 C
[12] = target: hNPR1-MMH in the presence of hANP (receptor-ligand complex) (human) (UniProt P01160); assay: SPR Biacore 8K, mAb captured via anti-hFc, 25 C, 10-fold hANP present
[13] = target: hNPR1-MMH in the presence of hANP (receptor-ligand complex) (human) (UniProt P01160); assay: SPR Biacore 8K, mAb captured via anti-hFc, 37 C, 10-fold hANP present
[14] = target: human NPR1 extracellular domain expressed with a C-terminal myc-myc-hexahistidine (human) (UniProt P16066); assay: SPR Biacore 4000, mAb captured via anti-hFc, 37 C, binding pH 7.4, dissociation pH 7.4
[15] = target: monkey NPR1 extracellular domain expressed with a C-terminal myc-myc-hexahistidine (monkey); assay: as above
[16] = target: human NPR1 extracellular domain expressed with a C-terminal myc-myc-hexahistidine (human) (UniProt P16066); assay: SPR Biacore 4000, mAb captured via anti-hFc, 37 C, binding pH 7.4, dissociation pH 6.0
[17] = target: monkey NPR1 extracellular domain expressed with a C-terminal myc-myc-hexahistidine (monkey); assay: as above

Sequence of human NPR1 extracellular domain expressed with a C-terminal myc-myc-hexahistidine (human) (P16066 other isoform, or with tags, fused parts or gaps): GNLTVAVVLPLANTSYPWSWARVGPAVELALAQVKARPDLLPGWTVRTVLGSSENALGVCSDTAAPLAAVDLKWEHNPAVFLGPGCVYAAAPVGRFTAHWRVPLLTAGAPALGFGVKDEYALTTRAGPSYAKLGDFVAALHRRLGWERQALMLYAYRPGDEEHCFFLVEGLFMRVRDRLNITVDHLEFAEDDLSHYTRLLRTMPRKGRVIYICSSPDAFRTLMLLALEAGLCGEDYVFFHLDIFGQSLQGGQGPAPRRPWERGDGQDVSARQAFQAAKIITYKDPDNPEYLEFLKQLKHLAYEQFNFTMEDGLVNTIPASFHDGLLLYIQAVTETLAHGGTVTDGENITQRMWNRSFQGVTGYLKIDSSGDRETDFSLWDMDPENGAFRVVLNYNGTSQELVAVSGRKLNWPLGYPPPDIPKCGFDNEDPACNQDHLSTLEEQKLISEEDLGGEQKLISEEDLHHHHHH
Sequence of human NPR1 on HEK293/hNPR1 cells (human) (P16066 33-1061): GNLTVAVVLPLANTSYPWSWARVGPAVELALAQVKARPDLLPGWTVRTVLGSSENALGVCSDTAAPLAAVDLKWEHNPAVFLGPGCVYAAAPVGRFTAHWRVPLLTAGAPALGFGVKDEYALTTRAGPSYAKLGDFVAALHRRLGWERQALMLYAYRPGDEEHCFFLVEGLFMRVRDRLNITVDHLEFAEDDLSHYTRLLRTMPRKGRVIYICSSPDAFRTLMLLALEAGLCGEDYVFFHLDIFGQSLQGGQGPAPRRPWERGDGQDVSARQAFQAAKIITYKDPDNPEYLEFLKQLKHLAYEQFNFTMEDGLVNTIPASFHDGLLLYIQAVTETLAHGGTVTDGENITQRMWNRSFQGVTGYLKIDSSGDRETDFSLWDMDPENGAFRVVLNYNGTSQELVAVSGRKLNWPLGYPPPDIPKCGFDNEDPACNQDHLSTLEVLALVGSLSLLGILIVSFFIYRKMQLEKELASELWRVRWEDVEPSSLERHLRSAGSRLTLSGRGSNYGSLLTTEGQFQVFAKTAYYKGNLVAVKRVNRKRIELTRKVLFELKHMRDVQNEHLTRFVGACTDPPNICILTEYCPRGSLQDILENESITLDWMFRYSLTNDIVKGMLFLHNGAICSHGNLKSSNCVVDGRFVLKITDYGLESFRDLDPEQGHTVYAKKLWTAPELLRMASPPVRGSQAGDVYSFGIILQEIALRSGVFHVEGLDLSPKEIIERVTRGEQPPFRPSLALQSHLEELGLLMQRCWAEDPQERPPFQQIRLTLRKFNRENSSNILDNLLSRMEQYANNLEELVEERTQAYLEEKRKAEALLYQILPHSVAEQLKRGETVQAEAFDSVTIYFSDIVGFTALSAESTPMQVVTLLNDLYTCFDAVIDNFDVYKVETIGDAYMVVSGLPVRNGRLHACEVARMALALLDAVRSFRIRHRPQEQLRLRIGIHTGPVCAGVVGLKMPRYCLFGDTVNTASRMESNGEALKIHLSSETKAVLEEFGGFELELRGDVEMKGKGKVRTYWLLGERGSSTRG
Sequence of monkey NPR1 extracellular domain expressed with a C-terminal myc-myc-hexahistidine (monkey) (P16066 other isoform, or with tags, fused parts or gaps): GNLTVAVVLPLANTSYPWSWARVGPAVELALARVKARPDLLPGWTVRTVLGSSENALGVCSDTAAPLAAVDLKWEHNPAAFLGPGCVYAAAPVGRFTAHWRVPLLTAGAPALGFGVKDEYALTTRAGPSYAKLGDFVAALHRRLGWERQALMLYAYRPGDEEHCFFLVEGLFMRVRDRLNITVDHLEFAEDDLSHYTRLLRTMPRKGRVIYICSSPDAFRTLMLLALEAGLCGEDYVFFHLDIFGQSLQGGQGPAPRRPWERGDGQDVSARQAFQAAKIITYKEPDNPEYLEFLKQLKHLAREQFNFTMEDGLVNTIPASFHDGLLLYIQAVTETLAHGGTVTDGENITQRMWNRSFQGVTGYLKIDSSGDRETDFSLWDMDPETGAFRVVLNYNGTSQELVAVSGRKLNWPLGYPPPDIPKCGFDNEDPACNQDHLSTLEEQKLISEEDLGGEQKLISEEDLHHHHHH
Sequence of pig NPR1 extracellular domain expressed with a C-terminal myc-myc-hexahistidine (pig) (chain, as listed by the source limits assumed): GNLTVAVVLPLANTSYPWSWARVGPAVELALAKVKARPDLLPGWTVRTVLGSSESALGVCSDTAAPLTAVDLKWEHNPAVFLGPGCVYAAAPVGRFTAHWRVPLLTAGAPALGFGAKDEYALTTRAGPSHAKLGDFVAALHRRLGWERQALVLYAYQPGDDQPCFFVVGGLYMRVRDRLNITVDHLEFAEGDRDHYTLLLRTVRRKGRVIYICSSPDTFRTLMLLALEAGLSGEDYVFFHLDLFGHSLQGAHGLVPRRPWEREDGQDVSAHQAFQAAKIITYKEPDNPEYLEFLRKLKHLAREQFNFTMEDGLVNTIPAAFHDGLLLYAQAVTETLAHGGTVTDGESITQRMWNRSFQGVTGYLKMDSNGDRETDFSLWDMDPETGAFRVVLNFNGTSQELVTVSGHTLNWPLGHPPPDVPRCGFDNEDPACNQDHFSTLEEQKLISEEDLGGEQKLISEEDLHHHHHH
Sequence of mouse NPR1 extracellular domain expressed with a C-terminal myc-myc-hexahistidine (mouse) (P18293 other isoform, or with tags, fused parts or gaps): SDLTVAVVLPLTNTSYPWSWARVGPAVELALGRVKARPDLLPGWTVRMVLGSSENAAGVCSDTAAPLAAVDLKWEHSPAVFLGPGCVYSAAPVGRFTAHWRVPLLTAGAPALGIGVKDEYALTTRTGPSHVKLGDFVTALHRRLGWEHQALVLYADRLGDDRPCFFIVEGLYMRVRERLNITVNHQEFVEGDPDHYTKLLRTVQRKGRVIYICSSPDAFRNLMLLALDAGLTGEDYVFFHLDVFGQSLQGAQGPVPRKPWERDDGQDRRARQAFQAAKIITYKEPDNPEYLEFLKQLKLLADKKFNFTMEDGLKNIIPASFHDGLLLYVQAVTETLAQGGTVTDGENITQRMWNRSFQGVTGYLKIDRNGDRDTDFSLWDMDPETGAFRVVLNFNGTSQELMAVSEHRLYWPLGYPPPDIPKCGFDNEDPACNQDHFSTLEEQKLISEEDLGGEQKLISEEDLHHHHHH
Sequence of hNPR1-MMH in the presence of hANP (receptor-ligand complex) (human) (P01160 124-151 limits assumed, chain 2 of 2): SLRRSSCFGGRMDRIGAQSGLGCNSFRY
Sequence of dog NPR1 extracellular domain expressed with a C-terminal myc-myc-hexahistidine (dog) (chain, as listed by the source limits assumed): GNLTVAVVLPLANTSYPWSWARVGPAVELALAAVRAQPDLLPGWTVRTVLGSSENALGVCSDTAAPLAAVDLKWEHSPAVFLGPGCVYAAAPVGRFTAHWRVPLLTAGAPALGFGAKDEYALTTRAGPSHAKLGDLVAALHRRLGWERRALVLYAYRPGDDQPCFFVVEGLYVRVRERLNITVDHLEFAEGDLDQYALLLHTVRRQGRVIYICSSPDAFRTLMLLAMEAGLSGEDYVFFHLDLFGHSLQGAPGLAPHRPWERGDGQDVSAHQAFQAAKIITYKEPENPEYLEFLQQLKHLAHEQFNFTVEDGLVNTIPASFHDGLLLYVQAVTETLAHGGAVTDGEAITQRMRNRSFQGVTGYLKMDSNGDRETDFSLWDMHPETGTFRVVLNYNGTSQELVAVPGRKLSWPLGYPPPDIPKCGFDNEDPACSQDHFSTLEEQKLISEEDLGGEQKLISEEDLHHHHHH

Max inh., %, cGMP accumulation assay, with 0.2 nM ANP [1]: -1%
Max inh., %, cGMP accumulation assay, with 0.7 nM BNP [1]: -9%
40 nM Ag Bound (RU) [2]: 0 RU
40 nM Ag Bound (RU) [3]: 0 RU
40 nM Ag Bound (RU) [4]: 1 RU
40 nM Ag Bound (RU) [5]: 0 RU
40 nM Ag Bound (RU) [6]: 0 RU
40 nM Ag Bound (RU) [7]: 0 RU
40 nM Ag Bound (RU) [8]: 0 RU
40 nM Ag Bound (RU) [9]: 0 RU
40 nM Ag Bound (RU) [10]: 0 RU
40 nM Ag Bound (RU) [11]: 0 RU
40 nM Ag Bound (RU) [12]: 0 RU
40 nM Ag Bound (RU) [13]: 0 RU
30 nM Ag Bound (RU) [14]: 2 RU
30 nM Ag Bound (RU) [15]: 1 RU
30 nM Ag Bound (RU) [16]: 2 RU
30 nM Ag Bound (RU) [17]: 2 RU
Substance: Isotype control (antibody)
Max Kill, %, secondary ADC mediated cytotoxicity, no ligand [1]: 0.01%
Max Kill, %, secondary ADC mediated cytotoxicity, with 100 nM ANP [1]: -4%
Max Kill, %, secondary ADC mediated cytotoxicity, with 100 nM BNP [1]: 0.5%
